Laboratory results taken from patent US20210269520A1 (Eli Lilly, published 2021).

Columns and labels:
[1] = target: T1, human CD19 extracellular domain protein (human, UniProt P15391 20-291, biotinylated in the FIG. 2 ELISA and in the Fab screening (sites not given)); experiment: sandwich ELISA: antibody captured on goat anti-human kappa, biotinylated human CD19 ECD titrated (20 ug/mL to 9 ng/mL), about 16 h wash at 37 C, neutravidin-alkaline phosphatase, absorbance at 560 nm
T1 construct: also called CD19 extracellular domain (ECD) protein; biotinylated human CD19 ECD antigen
T1 sequence: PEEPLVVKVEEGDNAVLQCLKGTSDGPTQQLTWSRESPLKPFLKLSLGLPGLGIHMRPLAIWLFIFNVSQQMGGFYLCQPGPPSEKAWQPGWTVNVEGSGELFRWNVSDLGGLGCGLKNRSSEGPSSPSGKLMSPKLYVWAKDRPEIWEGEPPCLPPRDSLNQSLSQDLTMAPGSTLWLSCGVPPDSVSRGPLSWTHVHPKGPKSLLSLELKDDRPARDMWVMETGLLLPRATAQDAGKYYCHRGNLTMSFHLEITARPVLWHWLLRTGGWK
Description: The ELISA assay is performed as follows. A 96 well microtiter plate is coated overnight at 4° C. using 50 μL/well of goat anti-human kappa polyclonal antibody diluted to 5 μg/mL in phosphate buffered saline (PBS). Following overnight incubation, the plate is aspirated and blocked using 200 μL of casein buffer for 1 hour at room temperature. The plate is washed three times using PBST (PBS with 0.1% Tween). The anti-human CD19 antibodies are diluted to 5 μg/mL in PBS casein and 50 μL added to each column of the anti-human kappa coated casein blocked plate for 1 hour at 37° C. The plate is washed three times using PBST. Biotinylated human CD19 extracellular domain protein is serially diluted from 20 μg/mL to 9 ng/mL and 50 μL added to the plates and incubated for 1 hour at 37° C. The plate is washed three times using PBST and then transferred to a beaker containing 1 liter of PBST and incubated with stirring overnight (approx. 16 hr) at 37° C. The wash buffer is aspirated and 50 μL of neutravidin alkaline phosphatase-conjugate diluted 1:1000 in casein buffer is added and incubated for 1 hour at 37° C. The plate is washed three times using PBS 0.1% Tween. Fifty μL of AMP-PMP substrate diluted 1:35 in deionized water is added and the absorbance at 560 nm read on a Spectramax plate reader.

[2] = target: T2, human CD19, membrane-bound, on cells (human, UniProt P15391 20-556); experiment: MSD-SET solution equilibrium titration at 37° C., fixed CHO cells expressing human CD19; geometric mean of 3 replicates
T2 construct: The CHO cells were fixed with paraformaldehyde for MSD-SET; also called human CD19 expressing CHO cells; CD19 on Daudi cells and primary human B cells
T2 sequence: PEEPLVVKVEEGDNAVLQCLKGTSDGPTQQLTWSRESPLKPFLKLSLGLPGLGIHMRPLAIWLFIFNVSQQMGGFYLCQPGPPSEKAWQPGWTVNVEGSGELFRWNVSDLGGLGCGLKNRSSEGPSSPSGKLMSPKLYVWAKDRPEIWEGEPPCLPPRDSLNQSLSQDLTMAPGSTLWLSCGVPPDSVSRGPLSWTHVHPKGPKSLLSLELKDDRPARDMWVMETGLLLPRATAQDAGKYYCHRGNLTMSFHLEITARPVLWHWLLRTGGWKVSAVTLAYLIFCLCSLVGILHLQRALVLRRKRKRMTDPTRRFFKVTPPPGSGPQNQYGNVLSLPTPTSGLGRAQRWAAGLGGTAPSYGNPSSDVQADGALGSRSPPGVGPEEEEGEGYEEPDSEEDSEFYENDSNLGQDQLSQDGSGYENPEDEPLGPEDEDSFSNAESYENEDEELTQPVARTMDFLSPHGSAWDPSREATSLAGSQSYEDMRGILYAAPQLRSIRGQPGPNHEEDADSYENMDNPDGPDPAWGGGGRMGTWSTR
Description: (§1) Following incubation, cells are pelleted by centrifugation. One hundred microliters of the clarified supernatant from the plate is transferred to the prepared MSD plate and incubated on a plate shaker at room temperature for 60 minutes. Following incubation, the plate is washed 3× with TBST, then 100 μL of 1 μg/mL biotinylated goat anti-human IgG primary antibody (Southern Biotech, Catalog 2010-08) in 1% Blocker A is added to all wells. This is incubated on a plate shaker at room temperature for 60 minutes. The plate was washed 3× with TBST, then 100 μL of 1 μg/mL SULFO-TAG streptavidin (Meso Scale Discovery, P/N R32AD-1) in 1% Blocker A was added to all wells. This was incubated on a plate shaker at room temperature for 60 minutes. The plate is washed 3× with TBST, then 1× Read Buffer T (Meso Scale Discovery, P/NR92TC-1) is added immediately before reading the plate. Dissociation constant (KD) and a least common multiplier (LCM) to account for unknown antigen concentrations on cells are globally fit from the MSD-SET data to an equilibrium binding equation (see Darling and Brault, 2005, Kinetic Exclusion Assay Technology: Characterization of Molecular Interactions. Assay and Drug Development Technologies 2: 647-657) using non-linear regression in GraphPad Prism.

[3] = target: T2, human CD19, membrane-bound, on cells; experiment: cell-based or functional assay
[4] = target: T2, human CD19, membrane-bound, on cells; experiment: cell-based or functional assay; remark: listed apart in the source
[5] = target: T3, cynomolgus monkey CD19, membrane-bound, stably expressed on CHO cells (cynomolgus monkey, UniProt A0A2K5W8L9 20-557); experiment: MSD-SET solution equilibrium titration at 37° C., fixed CHO cells expressing cynomolgus monkey CD19; geometric mean of 3 replicates
T3 construct: whole, on cells; The cells were fixed with paraformaldehyde for MSD-SET; also called cynomolgus monkey CD19 expressing CHO cells
T3 sequence: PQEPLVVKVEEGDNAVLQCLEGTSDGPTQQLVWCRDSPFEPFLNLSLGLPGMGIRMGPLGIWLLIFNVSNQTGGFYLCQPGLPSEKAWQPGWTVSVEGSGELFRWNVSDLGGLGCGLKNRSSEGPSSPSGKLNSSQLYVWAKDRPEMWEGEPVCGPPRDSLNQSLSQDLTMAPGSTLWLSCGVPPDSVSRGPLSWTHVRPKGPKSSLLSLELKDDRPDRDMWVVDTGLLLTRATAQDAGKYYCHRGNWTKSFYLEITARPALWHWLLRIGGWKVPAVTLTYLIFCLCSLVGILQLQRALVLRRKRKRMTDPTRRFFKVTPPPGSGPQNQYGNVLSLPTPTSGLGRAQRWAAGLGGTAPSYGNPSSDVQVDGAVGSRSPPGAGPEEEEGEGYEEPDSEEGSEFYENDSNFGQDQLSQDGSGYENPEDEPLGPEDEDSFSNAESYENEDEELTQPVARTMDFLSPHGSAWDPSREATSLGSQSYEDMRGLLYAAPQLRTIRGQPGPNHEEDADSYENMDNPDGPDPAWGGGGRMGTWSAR
Description: as §1

[6] = target: T4, cynomolgus monkey CD19 Fc fusion protein (cynomolgus monkey, UniProt A0A2K5W8L9 20-292); experiment: SPR (Biacore T200) at 37° C., CD19-Fc captured on a protein A chip, Fab injected, KD = koff/kon
T4 construct: Bought from R&D Systems; also called recombinant CD19-Fc; not shown: Fc part of a bought fusion protein
T4 sequence: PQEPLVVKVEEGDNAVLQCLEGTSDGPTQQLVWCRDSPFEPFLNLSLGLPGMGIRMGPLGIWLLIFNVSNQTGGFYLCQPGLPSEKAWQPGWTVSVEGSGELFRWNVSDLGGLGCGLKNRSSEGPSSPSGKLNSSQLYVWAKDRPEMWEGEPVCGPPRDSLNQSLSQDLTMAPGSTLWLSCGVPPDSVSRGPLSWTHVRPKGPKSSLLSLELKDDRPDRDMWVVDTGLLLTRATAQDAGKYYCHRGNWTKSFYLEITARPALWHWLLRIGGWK
Description: (§2) Biacore T200 instrument (GE Healthcare Life Sciences), reagents, and Biacore T200 Evaluation Software Ver 3.1 are used for the surface plasmon resonance analysis of human, mouse and cynomolgus monkey CD19 binding to the Fab fragment of CB3f. Recombinant CD19-Fc proteins are purchased from R&D Systems. A protein A sensor chip (GE protein A chip P/N 2912755) is used. Running buffer is 1×HBS-EP+ (Teknova P/N H8022), and running temperature is 37° C.
(§3) CD19 Fc fusion proteins are diluted to 3 μg/mL in running buffer, and approximately 60 RU each of human, cynomolgus monkey, and mouse proteins are captured in flow cells (Fc) 2, 3 and 4, respectively. CB3f Fab fragment is diluted to 1000 nM in running buffer and then 5-fold serially diluted in running buffer to 1.6 nM for a total of 5 dilutions. Fab or buffer blank is injected at 50 μL/min for 300 seconds followed by a 900 second dissociation phase. Regeneration is performed by injecting 10 mM glycine pH 1.5 for 30 seconds at 50 μL/min over all Fc. Reference-subtracted data is collected as Fc2-Fc1, Fc3-Fc1 and Fc4-Fc1, and then reference-subtracted data is blank subtracted. The on-rate (kₒₙ) and off-rate (koff) are fit using the “1:1 Binding” model. The affinity (KD) is calculated from the binding kinetics according to the relationship: KD=koff/kₒₙ.

[7] = target: T5, human CD19 Fc fusion protein (human, UniProt P15391 20-291); experiment: as above
T5 construct: Bought from R&D Systems; also called recombinant CD19-Fc; not shown: Fc part of a bought fusion protein
T5 sequence: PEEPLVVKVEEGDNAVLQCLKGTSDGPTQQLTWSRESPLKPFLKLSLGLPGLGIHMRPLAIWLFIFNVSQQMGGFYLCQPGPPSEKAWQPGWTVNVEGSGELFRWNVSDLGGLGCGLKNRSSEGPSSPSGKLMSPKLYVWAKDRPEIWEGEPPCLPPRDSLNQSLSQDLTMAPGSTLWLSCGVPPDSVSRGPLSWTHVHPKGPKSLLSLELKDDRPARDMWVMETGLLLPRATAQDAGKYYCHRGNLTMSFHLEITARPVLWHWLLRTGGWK
Description: as §2, §3

[8] = target: T4, cynomolgus monkey CD19 Fc fusion protein; experiment: SPR (Biacore T200) at 37° C., CD19-Fc captured on a protein A chip, Fab injected, 1:1 binding model
Description: as §2, §3

[9] = target: T5, human CD19 Fc fusion protein; experiment: as above
Description: as §2, §3

[10] = target: T6, mouse CD19 Fc fusion protein (mouse, UniProt P25918 19-287, limits assumed); experiment: SPR (Biacore T200) at 37° C., CD19-Fc captured on a protein A chip, Fab injected
T6 construct: Bought from R&D Systems; also called recombinant CD19-Fc; not shown: Fc part of a bought fusion protein
T6 sequence (looked up): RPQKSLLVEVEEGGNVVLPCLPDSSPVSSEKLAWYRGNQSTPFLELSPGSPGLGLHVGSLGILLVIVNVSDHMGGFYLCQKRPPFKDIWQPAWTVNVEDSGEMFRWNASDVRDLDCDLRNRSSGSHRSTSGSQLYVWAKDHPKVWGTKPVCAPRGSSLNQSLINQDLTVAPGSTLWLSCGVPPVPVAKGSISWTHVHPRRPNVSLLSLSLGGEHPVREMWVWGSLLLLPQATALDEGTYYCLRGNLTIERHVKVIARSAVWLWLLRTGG
Description: as §2, §3

B1: anti-human CD19 mAb CB3f (IgG4 isotype) (antibody, V domains shown)
VH: QVQLVQSGAEVKKPGSSVKVSCKASGHTISSYAYSWVRQAPGQGLEWMGDIIPAYGSPNYAQKFQGRVTITADESTSTAYMELSSLRSEDTAVYYCAREDFGKNYAMDVWGQGTLVTVSS
VL: EIVLTQSPGTLSLSPGERATLSCRASQHVSSHYLAWYQQKPGQAPRLLIYGASSRATGIPDRFSGSGSGTDFTLTISRLEPEDFAVYYCQHYGQSQFTFGQGTKVEIKR
notes: also called anti-human CD19 mAb1
- EC50 (read off the curve) [1]: ~0.8 µg/mL
- Kd [2]: 3.35 pM
- IC50, inhibition of B cell activation in whole blood (reduction of CD69+ B cells), Average [3]: 8 pM
- IC50, inhibition of B cell activation in whole blood (reduction of CD69+ B cells), Donor 1 [3]: 15 pM
- IC50, inhibition of B cell activation in whole blood (reduction of CD69+ B cells), Donor 2 [3]: 0.6 pM
- IC50, inhibition of B cell activation in whole blood (reduction of CD69+ B cells), Donor 3 [3]: 8 pM
- IC50, inhibition of primary B cell proliferation ([3H]-thymidine), Average of 12 donors [4]: 7 pM
- IC50, inhibition of primary B cell proliferation ([3H]-thymidine), Donor 1 [4]: 6 pM
- IC50, inhibition of primary B cell proliferation ([3H]-thymidine), Donor 2 [4]: 9 pM
- IC50, inhibition of primary B cell proliferation ([3H]-thymidine), Donor 3 [4]: 3 pM
- IC50, inhibition of primary B cell proliferation ([3H]-thymidine), Donor 4 [4]: 6 pM
- IC50, inhibition of primary B cell proliferation ([3H]-thymidine), Donor 5 [4]: 4 pM
- IC50, inhibition of primary B cell proliferation ([3H]-thymidine), Donor 6 [4]: 3 pM
- IC50, inhibition of primary B cell proliferation ([3H]-thymidine), Donor 7 [4]: 3 pM
- IC50, inhibition of primary B cell proliferation ([3H]-thymidine), Donor 8 [4]: 5 pM
- IC50, inhibition of primary B cell proliferation ([3H]-thymidine), Donor 9 [4]: 5 pM
- IC50, inhibition of primary B cell proliferation ([3H]-thymidine), Donor 10 [4]: 28 pM
- IC50, inhibition of primary B cell proliferation ([3H]-thymidine), Donor 11 [4]: 4 pM
- IC50, inhibition of primary B cell proliferation ([3H]-thymidine), Donor 12 [4]: 5 pM
- Kd [5]: 45.2 pM

B2: Fab fragment of CB3f (Fab, V domains shown)
VH: QVQLVQSGAEVKKPGSSVKVSCKASGHTISSYAYSWVRQAPGQGLEWMGDIIPAYGSPNYAQKFQGRVTITADESTSTAYMELSSLRSEDTAVYYCAREDFGKNYAMDVWGQGTLVTVSS
VL: EIVLTQSPGTLSLSPGERATLSCRASQHVSSHYLAWYQQKPGQAPRLLIYGASSRATGIPDRFSGSGSGTDFTLTISRLEPEDFAVYYCQHYGQSQFTFGQGTKVEIK
notes: also called CB3f Fab fragment; CB3f Fab
- Kd [6]: 94500 pM
- Kd [7]: 76.8 pM
- koff [8]: 0.0978 s⁻¹
- kon [8]: 1.04e+06 M⁻¹ s⁻¹
- koff [9]: 0.000235 s⁻¹
- kon [9]: 3.2e+06 M⁻¹ s⁻¹
- binding result [10]: no binding (tested: 1 µM)
